# Assay results taken from the RNAGym collection of RNA variant scans (doi:10.7554/elife.80360).
# B1: CPEB3 Ribozyme (parent)
# chain: GGGGGCCACAGCAGAAGCGUUCACGUCGCGGCCCCUGUCAGAUUCUGGUGAAUCUGCGAAUUCUGCUGU
# Variants of: B1
# Assay: self-cleavage, relative activity (ratio to wild type); higher = more cleavage; co-transcriptional
row,Variant,self-cleavage
1,C32A U38G,0.271
2,G31U C54U,0.729
3,G31U C54G,0.33
4,G31A U67A,0.951
5,G31A U67C,0.984
6,G31C U46G,0.205
7,G31C U46A,0.263
8,G31C U46C,0.164
9,C32A U44A,0.357
10,C32A U44G,0.469
11,G31C C54G,0.183
12,G31C C54A,0.189
13,G31U U36A,0.189
14,G31U U36G,0.738
15,G31C G48C,0.222
16,G31C G48A,0.24
17,G31C G48U,0.247
18,C32G G37A,0.195
19,C32G G37U,0.149
20,C32G G37C,0.184
21,C32A G58A,0.693
22,C32A G58C,0.841
23,C32G G47C,0.683
24,C32G G47A,0.673

row,Variant,self-cleavage
1,C32A U49A,0.871
2,C32A U49C,0.704
3,G31U C33U,0.4
4,G31U C33G,0.2
5,C32G C63A,0.3
6,G31U C63U,0.602
7,G31A C45A,0.833
8,G31A C45U,0.888
9,G31A C45G,0.761
10,G31U G65C,0.358
11,G31U G65U,0.352
12,G31C U43G,0.276
13,G31C U43C,0.289
14,G31A C63G,0.391
15,G31A C63U,0.895
16,G31U C35G,0.252
17,C32A U69C,1.03
18,G31C G68C,0.414
19,G31C G68U,0.392
20,G31C C63G,0.133
21,G31C C63A,0.233
22,G31C C63U,0.251
23,G31U U38C,0.505
24,G31U U38A,0.537

row,Variant,self-cleavage
1,G31U U38G,0.124
2,G31U U69A,0.876
3,G31U U69C,1.02
4,G31C G41A,0.201
5,G31C G41C,0.173
6,G31C C32A,0.474
7,G31C C32U,0.235
8,C32G C54G,0.335
9,C32G C54A,0.356
10,G31C C57G,0.151
11,C32A C66A,0.698
12,C32A C66U,0.903
13,C32A G41A,0.344
14,C32A G41U,0.362
15,C32G,0.584
16,C32A,0.866
17,G31C G47U,0.239
18,G31C G47C,0.271
19,G31C G47A,0.249
20,G31A U36A,0.218
21,G31A U36C,0.669
22,G31A U36G,0.268
23,G31U G68A,0.957
24,G31A C66G,0.707

row,Variant,self-cleavage
1,G31C C45G,0.245
2,G31C C45U,0.263
3,G31C C45A,0.25
4,G31U G58C,0.611
5,G31U U55C,0.459
6,G31U U55G,0.274
7,C32A G48C,0.862
8,C32A G48U,0.901
9,C32A G48A,0.875
10,C32A U61C,0.365
11,C32A U61G,0.421
12,C32A U61A,0.406
13,C32A A51G,0.521
14,G31A G37A,0.193
15,G31A G37C,0.231
16,C32A U53C,0.455
17,C32A U53G,0.419
18,C32A U55A,0.622
19,C32A U55G,0.451
20,C32A U55C,0.393
21,G31C U36C,0.203
22,G31C U36A,0.155
23,G31C U36G,0.475
24,G31C U62G,0.228

row,Variant,self-cleavage
1,G31C C66A,0.252
2,G31C C66U,0.264
3,G31C C66G,0.155
4,C32A G56A,0.674
5,C32A G56U,0.683
6,G31A G41U,0.512
7,G31A G41C,0.349
8,C32G C66G,0.227
9,G31A C35G,0.26
10,G31U G48A,0.756
11,G31U G48U,0.797
12,G31U G48C,0.812
13,G31U A52G,0.775
14,G31U A52U,0.655
15,G31C C35A,0.241
16,G31C C35U,0.189
17,C32G C39U,0.332
18,G31A G56A,0.702
19,G31A G56C,0.523
20,G31A G56U,0.767
21,C32A U46C,0.776
22,C32A U46G,0.729
23,C32A U46A,0.574
24,C32A A42C,0.342

row,Variant,self-cleavage
1,C32A A42U,0.504
2,G31U G41U,0.398
3,C32A A59G,0.61
4,C32A A59C,0.372
5,C32G G41A,0.35
6,C32G G41C,0.267
7,G31U U67G,0.919
8,G31U U67A,0.89
9,G31U U64A,0.446
10,G31U U64C,0.427
11,G31U U53G,0.411
12,G31U U53A,0.545
13,G31A U64G,0.728
14,C32A G65A,0.638
15,C32A G68A,0.994
16,C32A G68U,1.01
17,G31A G68C,1.02
18,G31A G68A,1.03
19,G31A G68U,1
20,G31A C32A,0.637
21,G31A C32U,0.534
22,G31C U67A,0.277
23,G31C U67G,0.355
24,G31C U49C,0.178

row,Variant,self-cleavage
1,G31C U49A,0.286
2,G31C U49G,0.175
3,C32A C34A,0.229
4,C32A C34U,0.362
5,G31A A52C,0.82
6,G31U C45A,0.662
7,G31U C45G,0.559
8,G31C A42G,0.277
9,G31C A42U,0.18
10,G31C A52U,0.184
11,G31C A52C,0.266
12,G31C A52G,0.197
13,C32G C45G,0.434
14,G31U U62G,0.274
15,G31U U62C,0.226
16,G31A U69G,1.02
17,G31A U62C,0.406
18,G31A U62A,0.352
19,G31A U62G,0.434
20,C32G G48A,0.62
21,C32A C39U,0.388
22,C32A C39A,0.434
23,C32A C35A,0.26
